Assay results as given in patent US20230407373A1 (priority 2020, published 2023).
Read-outs that look alike come from different tables or passages of the source.

Tests used:
Assay type in all cases: binding
SARS-CoV-2 gRNA = settings: for target (unweighted spectral count of the protein in the RNP capture): LC-MS/MS, Probe I sample (first 199 lines of Table 2)
[1] = system: SARS-CoV-2 gRNA and sgRNAs; settings: for background (unweighted spectral count in control): no-probe control pull-down, used as background for Probe II
gRNA of HCoV-OC43 = settings: for target (spectral count) / background (spectral count): type g_36_m, 36 hpi, Probe I; for target (spectral count): HCoV-OC43-infected HCT-8 cells; for background (spectral count): uninfected-probe control; for target (spectral count, OC43 Probe I RNP capture) / background (spectral count, no-probe control): type n_48_v: 48 hours post-infection; for target (spectral count, OC43 Probe I RNP capture): infected cells, unweighted spectral count; for background (spectral count, no-probe control): no-probe control on infected cells
HCoV-OC43 gRNA and sgRNA = settings: for target (unweighted spectral count, OC43 Probe II capture) / target (spectral count) / background (spectral count): 36 hpi; for target (unweighted spectral count, OC43 Probe II capture): type n_36_v, FDR<10%; for target (unweighted spectral count, OC43 Probe II capture) / target (unweighted spectral count): tested against no-probe control; for target (unweighted spectral count): OC43 Probe II, infected cells; for target (unweighted spectral count, OC43 Probe II) / background (unweighted spectral count, no-probe control): type n_48_v, 48 hpi; for target (unweighted spectral count, OC43 Probe II): OC43 Probe II capture on infected cells; for background (unweighted spectral count, no-probe control): no-probe control on infected cells; for target (spectral count) / background (spectral count): type s_36_m, Probe II; for target (spectral count): HCoV-OC43-infected HCT-8 cells; for background (spectral count): uninfected-probe control

Molecule | enrichment in SARS-CoV-2 Probe I RNP capture (SARS-CoV-2 gRNA) | target (unweighted spectral count of the protein in the RNP capture) (SARS-CoV-2 gRNA) | enrichment in SARS-CoV-2 Probe II RNP capture [1] | target (unweighted spectral count in RNP capture) ([1]; Probe II capture, […], LC-MS/MS LFQ) | background (unweighted spectral count in control) [1] | target (spectral count) (gRNA of HCoV-OC43) | background (spectral count) (gRNA of HCoV-OC43) | target (spectral count, OC43 Probe I RNP capture) (gRNA of HCoV-OC43) | background (spectral count, no-probe control) (gRNA of HCoV-OC43) | target (unweighted spectral count, OC43 Probe II capture) (HCoV-OC43 gRNA and sgRNA) | target (unweighted spectral count) (HCoV-OC43 gRNA and sgRNA; 12 hpi (type n_12_v)) | target (unweighted spectral count) (HCoV-OC43 gRNA and sgRNA; 24 hpi (type n_24_v)) | target (unweighted spectral count, OC43 Probe II) (HCoV-OC43 gRNA and sgRNA) | background (unweighted spectral count, no-probe control) (HCoV-OC43 gRNA and sgRNA) | target (spectral count) (HCoV-OC43 gRNA and sgRNA) | background (spectral count) (HCoV-OC43 gRNA and sgRNA)
RALY: host protein, UniProt Q9UKM9 (protein, UniProt Q9UKM9 2-306, looked up) RNA-binding protein Raly: SLKLQASNVTNKNDPKSINSRVFIGNLNTALVKKSDVETIFSKYGRVAGCSVHKGYAFVQYSNERHARAAVLGENGRVLAGQTLDINMAGEPKPDRPKGLKRAASAIYSGYIFDYDYYRDDFYDRLFDYRGRLSPVPVPRAVPVKRPRVTVPLVRRVKTNVPVKLFARSTAVTTSSAKIKLKSSELQAIKTELTQIKSNIDALLSRLEQIAAEQKANPDGKKKGDGGGAGGGGGGGGSGGGGSGGGGGGGSSRPPAPQENTTSEAGLPQGEARTRDDGDEEGLLTHSEEELEHSQDTDADDGALQ | found in the SARS-CoV-2 experiments | 33 | found in the SARS-CoV-2 experiments | 28 | 1 | 28 | 3 | 31 | 2 | 23 | 4 | 14 | 24 | 2 | 23 | 2
FAM120A: host protein, UniProt Q9NZB2 (protein, UniProt Q9NZB2 1-1118, looked up) Constitutive coactivator of …: MGVQGFQDYIEKHCPSAVVPVELQKLARGSLVGGGRQRPPQTPLRLLVDADNCLHRLYGGFYTDWVSGGQWNHMLGYLAALAKACFGGNIELFVFFNGALEKARLHEWVKRQGNERQTAQQIVSHVQNKGTPPPKVWFLPPVCMAHCIRLALIRFHVKVAQSIEDHHQEVIGFCRENGFHGLVAYDSDYALCNIPYYFSAHALKLSRNGKSLTTSQYLMHEVAKQLDLNPNRFPIFAALLGNHILPDEDLASFHWSLLGPEHPLASLKVRAHQLVLPPCDVVIKAVADYVRNIQDTSDLDAIAKDVFQHSQSRTDDKVIRFKRAIGYYSATSKPMSFHPPHYLAARPGPFGMPGMVPPHVPPQMLNIPQTSLQAKPVAPQVPSPGGAPGQGPYPYSLSEPAPLTLDTSGKNLTEQNSYSNIPHEGKHTPLYERSSPINPAQSGSPNHVDSAYFPGSSTSSSSDNDEGSGGATNHISGNKIGWEKTGSHSEPQARGDPGDQTKAEGSSTASSGSQLAEGKGSQMGTVQPIPCLLSMPTRNHMDITTPPLPPVAPEVLRVAEHRHKKGLMYPYIFHVLTKGEIKIAVSIEDEANKDLPPAALLYRPVRQYVYGVLFSLAESRKKTERLAFRKNRLPPEFSPVIIKEWAAYKGKSPQTPELVEALAFREWTCPNLKRLWLGKAVEDKNRRMRAFLACMRSDTPAMLNPANVPTHLMVLCCVLRYMVQWPGARILRRQELDAFLAQALSPKLYEPDQLQELKIENLDPRGIQLSALFMSGVDMALFANDACGQPIPWEHCCPWMYFDGKLFQSKLLKASREKTPLIDLCDGQADQAAKVEKMRQSVLEGLSFSRQSHTLPFPPPPALPFYPASAYPRHFGPVPPSQGRGRGFAGVCGFGGPYGETVATGPYRAFRVAAASGHCGAFSGSDSSRTSKSQGGVQPIPSQGGKLEIAGTVVGHWAGSRRGRGGRGPFPLQVVSVGGPARGRPRGVISTPVIRTFGRGGRYYGRGYKNQAAIQGRPPYAASAEEVAKELKSKSGESKSSAMSSDGSLAENGVMAEEKPAPQMNGSTGDARAPSHSESALNNDSKTCNTNPHLNALSTDSACRREAALEAAVLNKEE | found in the SARS-CoV-2 experiments |  | found in the SARS-CoV-2 experiments |  |  | 23 | 2 | 29 | 2 | 18 | 4 | 18 | 33 | 2 | 19 | 2
SND1: host protein, UniProt Q7KZF4 (protein, UniProt Q7KZF4 2-910, looked up) Staphylococcal nuclease …: ASSAQSGGSSGGPAVPTVQRGIIKMVLSGCAIIVRGQPRGGPPPERQINLSNIRAGNLARRAAATQPDAKDTPDEPWAFPAREFLRKKLIGKEVCFTIENKTPQGREYGMIYLGKDTNGENIAESLVAEGLATRREGMRANNPEQNRLSECEEQAKAAKKGMWSEGNGSHTIRDLKYTIENPRHFVDSHHQKPVNAIIEHVRDGSVVRALLLPDYYLVTVMLSGIKCPTFRREADGSETPEPFAAEAKFFTESRLLQRDVQIILESCHNQNILGTILHPNGNITELLLKEGFARCVDWSIAVYTRGAEKLRAAERFAKERRLRIWRDYVAPTANLDQKDKQFVAKVMQVLNADAIVVKLNSGDYKTIHLSSIRPPRLEGENTQDKNKKLRPLYDIPYMFEAREFLRKKLIGKKVNVTVDYIRPASPATETVPAFSERTCATVTIGGINIAEALVSKGLATVIRYRQDDDQRSSHYDELLAAEARAIKNGKGLHSKKEVPIHRVADISGDTQKAKQFLPFLQRAGRSEAVVEYVFSGSRLKLYLPKETCLITFLLAGIECPRGARNLPGLVQEGEPFSEEATLFTKELVLQREVEVEVESMDKAGNFIGWLHIDGANLSVLLVEHALSKVHFTAERSSYYKSLLSAEEAAKQKKEKVWAHYEEQPVEEVMPVLEEKERSASYKPVFVTEITDDLHFYVQDVETGTQLEKLMENMRNDIASHPPVEGSYAPRRGEFCIAKFVDGEWYRARVEKVESPAKIHVFYIDYGNREVLPSTRLGTLSPAFSTRVLPAQATEYAFAFIQVPQDDDARTDAVDSVVRDIQNTQCLLNVEHLSAGCPHVTLQFADSKGDVGLGLVKEGLVMVEVRKEKQFQKVITEYLNAQESAKSARLNLWRYGDFRADDADEFGYSR | found in the SARS-CoV-2 experiments | 16 | found in the SARS-CoV-2 experiments |  | 1 | 16 | 3 | 25 | 6 | 57 | 27 | 37 | 84 | 6 | 57 | 1
MATR3: host protein, UniProt P43243 (protein, UniProt P43243 2-847, looked up) Matrin-3: SKSFQQSSLSRDSQGHGRDLSAAGIGLLAAATQSLSMPASLGRMNQGTARLASLMNLGMSSSLNQQGAHSALSSASTSSHNLQSIFNIGSRGPLPLSSQHRGDADQASNILASFGLSARDLDELSRYPEDKITPENLPQILLQLKRRRTEEGPTLSYGRDGRSATREPPYRVPRDDWEEKRHFRRDSFDDRGPSLNPVLDYDHGSRSQESGYYDRMDYEDDRLRDGERCRDDSFFGETSHNYHKFDSEYERMGRGPGPLQERSLFEKKRGAPPSSNIEDFHGLLPKGYPHLCSICDLPVHSNKEWSQHINGASHSRRCQLLLEIYPEWNPDNDTGHTMGDPFMLQQSTNPAPGILGPPPPSFHLGGPAVGPRGNLGAGNGNLQGPRHMQKGRVETSRVVHIMDFQRGKNLRYQLLQLVEPFGVISNHLILNKINEAFIEMATTEDAQAAVDYYTTTPALVFGKPVRVHLSQKYKRIKKPEGKPDQKFDQKQELGRVIHLSNLPHSGYSDSAVLKLAEPYGKIKNYILMRMKSQAFIEMETREDAMAMVDHCLKKALWFQGRCVKVDLSEKYKKLVLRIPNRGIDLLKKDKSRKRSYSPDGKESPSDKKSKTDGSQKTESSTEGKEQEEKSGEDGEKDTKDDQTEQEPNMLLESEDELLVDEEEAAALLESGSSVGDETDLANLGDVASDGKKEPSDKAVKKDGSASAAAKKKLKKVDKIEELDQENEAALENGIKNEENTEPGAESSENADDPNKDTSENADGQSDENKDDYTIPDEYRIGPYQPNVPVGIDYVIPKTGFYCKLCSLFYTNEEVAKNTHCSSLPHYQKLKKFLNKLAEERRQKKET | found in the SARS-CoV-2 experiments | 56 | found in the SARS-CoV-2 experiments |  |  | 57 | 4 | 41 | 3 | 39 | 11 | 20 | 39 | 3 | 39 | 4
